B1: RAD54B (parent)
chain: YVQEKRDGLKRRQQLEEELLRAKI

Variants of: B1
Experiment: protein stability index of a GFP-peptide fusion (GPS, HEK-293T) (PSI 1-6); higher = more stable
Settings: c terminus: a fixed tail appended
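Also: lentivirally expressed fusions sorted by FACS into six bins by GFP to DsRed ratio, PSI derived from sequencing read proportions per bin multiplied by bin number.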

Variant	protein stability index
YVQEKRDGLKRRQQLEEELIRAKI [L20I]	1.76
YVQEKRDGLKRRQQLEEELHRAKI [L20H]	1.81
YVQEKRDGLKRRQQLEEELFRAKI [L20F]	1.3
YVQEKRDGLKRRQQLEEELLRATI [K23T]	2.08
YVQSKRDGLKRRQQLEEELLRAKI [E4S]	2.9
YVQRKRDGLKRRQQLEEELLRAKI [E4R]	2.31
YVQQKRDGLKRRQQLEEELLRAKI [E4Q]	1.68
YVQAKRDGLKRRQQLEEELLRAKI [E4A]	1.83
YVQEKRDGWKRRQQLEEELLRAKI [L9W]	1.81
YVQEKRDGEKRRQQLEEELLRAKI [L9E]	2.85
YVQEKRDGFKRRQQLEEELLRAKI [L9F]	2.02
YVQEKRDGSKRRQQLEEELLRAKI [L9S]	1.99
YVQEKRDGMKRRQQLEEELLRAKI [L9M]	2.02
YVGEKRDGLKRRQQLEEELLRAKI [Q3G]	1.9
YVWEKRDGLKRRQQLEEELLRAKI [Q3W]	2.43
YVDEKRDGLKRRQQLEEELLRAKI [Q3D]	2.97
YVEEKRDGLKRRQQLEEELLRAKI [Q3E]	2.35
YVVEKRDGLKRRQQLEEELLRAKI [Q3V]	2.48
YVPEKRDGLKRRQQLEEELLRAKI [Q3P]	2.43
YVQEKRDGLKRRPQLEEELLRAKI [Q13P]	2.17
YVQEKRDGLKRRVQLEEELLRAKI [Q13V]	2.4
YVQEKRDGLKRRFQLEEELLRAKI [Q13F]	1.62
YVQEKRDGLKRRNQLEEELLRAKI [Q13N]	1.91
YVQEKRDGLKRRIQLEEELLRAKI [Q13I]	2.49

Variant	protein stability index
YVQEKRDGLKRRSQLEEELLRAKI [Q13S]	1.69
YVQEKNDGLKRRQQLEEELLRAKI [R6N]	2.31
YVQEKRDGLKRKQQLEEELLRAKI [R12K]	2.47
YVQEKRDGLKRFQQLEEELLRAKI [R12F]	2.28
YVQEKRDGLKREQQLEEELLRAKI [R12E]	2.34
YVQEQRDGLKRRQQLEEELLRAKI [K5Q]	2.48
YVQEDRDGLKRRQQLEEELLRAKI [K5D]	3.46
YVQEARDGLKRRQQLEEELLRAKI [K5A]	1.96
YVQECRDGLKRRQQLEEELLRAKI [K5C]	2.16
YVQEGRDGLKRRQQLEEELLRAKI [K5G]	1.91
YVQEHRDGLKRRQQLEEELLRAKI [K5H]	2.26
YVQEPRDGLKRRQQLEEELLRAKI [K5P]	2.05
YVQEKRDGLKRRQQLEEEFLRAKI [L19F]	2.37
YVQEKRDGLKRRQQLEEEILRAKI [L19I]	1.88
QVQEKRDGLKRRQQLEEELLRAKI [Y1Q]	3.42
DVQEKRDGLKRRQQLEEELLRAKI [Y1D]	4.4
SVQEKRDGLKRRQQLEEELLRAKI [Y1S]	4.37
EVQEKRDGLKRRQQLEEELLRAKI [Y1E]	3.68
YVQEKRDQLKRRQQLEEELLRAKI [G8Q]	2.01
YVQEKRDVLKRRQQLEEELLRAKI [G8V]	2.11
YVQEKRDCLKRRQQLEEELLRAKI [G8C]	1.98
YVQEKRDTLKRRQQLEEELLRAKI [G8T]	1.74
YVQEKRDGLERRQQLEEELLRAKI [K10E]	2.58
YVQEKRDGLNRRQQLEEELLRAKI [K10N]	2.41

Variant	protein stability index
YVQEKRDGLFRRQQLEEELLRAKI [K10F]	1.6
YVQEKRDGLKRRQQLEEPLLRAKI [E18P]	2
YVQEKRDGLKRRQQLEEGLLRAKI [E18G]	2.53
YVQEKRDGLKRRQQLEEILLRAKI [E18I]	1.67
YVQEKRDGLKRRQQLEEVLLRAKI [E18V]	1.94
YVQEKRDGLKRRQQLEELLLRAKI [E18L]	1.55
YVQEKRDGLKRRQQLEEELLRAKW [I24W]	2.28
YVQEKRDGLKRRQQLEEELLRAKV [I24V]	1.92
YVQEKRDGLKRRQQLEEELLRAKT [I24T]	1.58
YVQEKRDGLKRRQQLEEELLSAKI [R21S]	2.97
YVQEKRDGLKRRQQLEEELLQAKI [R21Q]	1.89
YVQEKRDGLKRRQQLEEELLWAKI [R21W]	1.93
YVQEKRDGLKRRQQLEEELLNAKI [R21N]	1.8
YAQEKRDGLKRRQQLEEELLRAKI [V2A]	3.72
YPQEKRDGLKRRQQLEEELLRAKI [V2P]	3.2
YEQEKRDGLKRRQQLEEELLRAKI [V2E]	4.64
YDQEKRDGLKRRQQLEEELLRAKI [V2D]	4.46
YRQEKRDGLKRRQQLEEELLRAKI [V2R]	3.82
YVQEKRVGLKRRQQLEEELLRAKI [D7V]	1.47
YVQEKRSGLKRRQQLEEELLRAKI [D7S]	2.37
YVQEKRYGLKRRQQLEEELLRAKI [D7Y]	1.39
YVQEKRWGLKRRQQLEEELLRAKI [D7W]	2.14
YVQEKRRGLKRRQQLEEELLRAKI [D7R]	2.37
YVQEKRDGLKRRQQFEEELLRAKI [L15F]	1.4

Variant	protein stability index
YVQEKRDGLKRRQQTEEELLRAKI [L15T]	1.55
YVQEKRDGLKRRQQMEEELLRAKI [L15M]	2.56
YVQEKRDGLKRRQQLELELLRAKI [E17L]	2.19
YVQEKRDGLKRRQQLESELLRAKI [E17S]	2.15
YVQEKRDGLKRRQQLEHELLRAKI [E17H]	1.84
YVQEKRDGLKRRQQLEDELLRAKI [E17D]	2.01
YVQEKRDGLKRRQCLEEELLRAKI [Q14C]	1.77
YVQEKRDGLKRRQTLEEELLRAKI [Q14T]	1.75
YVQEKRDGLKRRQYLEEELLRAKI [Q14Y]	2.25
YVQEKRDGLKRRQQLEEELLRPKI [A22P]	1.68
YVQEKRDGLKRRQQLEEELLRTKI [A22T]	1.98
YVQEKRDGLKRRQQLEEELLRHKI [A22H]	1.52
YVQEKRDGLKRRQQLEEELLRQKI [A22Q]	2
YVQEKRDGLKKRQQLEEELLRAKI [R11K]	2.44
YVQEKRDGLKGRQQLEEELLRAKI [R11G]	2
YVQEKRDGLKLRQQLEEELLRAKI [R11L]	2.23
YVQEKRDGLKSRQQLEEELLRAKI [R11S]	2.36
YVQEKRDGLKRRQQLGEELLRAKI [E16G]	2.41
YVQEKRDGLKRRQQLREELLRAKI [E16R]	1.53
YVQEKRDGLKRRQQLWEELLRAKI [E16W]	1.73
YVQEKRDGLKRRQQLSEELLRAKI [E16S]	1.39
YVQEKRDGLKRRQQLKEELLRAKI [E16K]	1.67

— the supplement of paper PMC10567573
